# Source: the supplement of paper PMC9170038
# How the values were obtained:
# MS2 coat protein [1] = assay: apparent KD of MS2 coat protein; higher = weaker reporter binding; conditions: Eterna round: R101
# Method: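 RNA-MaP: designed FMN/MS2 RNA switches (84 nt design region) are transcribed on-chip within common flanks and titrated with SNAP-549-labelled MS2 coat protein (about 1-3000 nM) in 100 mM Tris pH 7.5, 80 mM KCl, 4 mM MgCl2, without or with 200 uM FMN. Median apparent KD per design; activation ratio = KD,OFF / KD,ON.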
# MS2 coat protein [2] = assay: apparent KD of MS2 coat protein, switch OFF state (with FMN for OFF switches, without FMN for ON switches); designed switch direction (-1 OFF switch, 1 ON switch): 1; higher = weaker reporter binding; conditions: FMN input: 0 or 200 uM; Eterna round: R93 (includes R88 designs)
# Procedure, shortened: (§1)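 The designed RNA switches were transcribed on-chip from Illumina sequencing clusters. In 100 mM Tris-HCl pH 7.5, 80 mM KCl and 4 mM MgCl2, without or with constant ligand, they were titrated with SNAP-549-labelled MS2 coat protein from 0.7 or 1.5 nM to 3 µM in twofold steps. Apparent KD is the per-design median of normalised cluster binding-curve fits.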
# MS2 coat protein [3] = assay: apparent KD of MS2 coat protein, switch ON state; designed switch direction (-1 OFF switch, 1 ON switch): 1; higher = weaker reporter binding; conditions: FMN input: 0 or 200 uM; Eterna round: R93 (includes R88 designs)
# Procedure, shortened: as §1
sequence,measurement,setting,value
AAAAUGAUUUUAGGAUAUGACUCCGAAACGGAGUCAGAAGGAGGAUCACCCUUUCAAAGCUCAGCGUCGAAAGACGCUGAGCAA [#SharedSequence - ExNG1-20] (puzzle (switch architecture): Exclusion NG 1),apparent KD of MS2 coat protein,MS2 coat protein [1]; input ligand: FMN 200 uM,1200 nM
same,apparent KD of MS2 coat protein,MS2 coat protein [1]; input ligand: none,201 nM
AAAUGAUAUCAGAAGGCGUGGACGAAACGUCCACGAGGAUAUGAGGAUCACCCAUGUCAGGUCAGCCUGCAAAGCAGGCUGACC [#SharedSequence - IExNG1: 7-4] (puzzle (switch architecture): Inverted Exclusion NG 1),apparent KD of MS2 coat protein,MS2 coat protein [1]; input ligand: FMN 200 uM,562 nM
same,apparent KD of MS2 coat protein,MS2 coat protein [1]; input ligand: none,50.3 nM
AAGCACGAAGAUUAUUAUGAAUAAACAUGAGGAUCACCCAUGUAGGAUAUCGACUCGAAUAGAGUCGAGAAGGACAAAACGUGC [#BasePairInsertion1E] (puzzle (switch architecture): Exclusion NG 3),apparent KD of MS2 coat protein,MS2 coat protein [1]; input ligand: FMN 200 uM,11.6 nM
same,apparent KD of MS2 coat protein,MS2 coat protein [1]; input ligand: none,6.96 nM
CGGAGACAUGAGGAUCACCCAUGUGAGAAGAGGCGAGGAUAUCGAAAGAAAGAAGAGAAACGAGAAGGCGCGAGCC [salish99-SS1-080(!)],apparent KD of MS2 coat protein,MS2 coat protein [2],31.4 nM
same,apparent KD of MS2 coat protein,MS2 coat protein [3],32.1 nM
CGUGAACAUGAGGAUCACCCAUGUGAAAAACAUAGAGGAUAUGUCACAUGAGUGUAAAAGACAGAAGGCUAUCGUG [Mod 1 of Round 1 starryjess' Mod pf Nando],apparent KD of MS2 coat protein,MS2 coat protein [2],152 nM
same,apparent KD of MS2 coat protein,MS2 coat protein [3],98 nM
CUUAGACAUGAGGAUCACCCAUGUCGAACAAACAAAGGAUAUGGGAGCCGAAGAAGGCUAUUAGAAGGUUGCAAAA [Isesinbe],apparent KD of MS2 coat protein,MS2 coat protein [2],28.6 nM
same,apparent KD of MS2 coat protein,MS2 coat protein [3],26.4 nM
GAAAAAAAAAGGCAGGAUAUCCAAAAAAAAACAUGAGGAUCACCCAUGUAAAAAAAAAAAAAAUGGGAGAAGGGCCAAAAAAAAA [Mat - Same State 2 - Mod - 151],apparent KD of MS2 coat protein,MS2 coat protein [2],35.2 nM
same,apparent KD of MS2 coat protein,MS2 coat protein [3],25.5 nM
GAAAAACAUGAGGAUCACCCAUGUAAAAAUAUGGGAGGAUAUAGAAAGACGAAAGUCAAACUAGAAGGCCUAAAAG [Garnet 1],apparent KD of MS2 coat protein,MS2 coat protein [2],63 nM
same,apparent KD of MS2 coat protein,MS2 coat protein [3],28.1 nM
GAAAAACAUGAGGAUCACCCAUGUAAGAUAAACACAGGAUAUGCGAAAAGAAAGAAAGAAGCAGAAGGGUGAAAAG [Mat - Same State 1 - Tesla mod - 42],apparent KD of MS2 coat protein,MS2 coat protein [2],43.8 nM
same,apparent KD of MS2 coat protein,MS2 coat protein [3],15.2 nM
GAAAAACAUGAGGAUCACCCAUGUAGAAAUAUGGAAGGAUAUACAAAGACGAAAGUCAAAGUAGAAGGUCUAAAAG [Mat - Same State 1 - Eli mod - D13],apparent KD of MS2 coat protein,MS2 coat protein [2],19.8 nM
same,apparent KD of MS2 coat protein,MS2 coat protein [3],15.5 nM
GAAAAACAUGAGGAUCACCCAUGUAGUAAUAUGGAAGGAUAUACAAAGACGUAAGUCAAAGUAGAAGGUCUAAAAG [Garnet 100],apparent KD of MS2 coat protein,MS2 coat protein [2],24.7 nM
same,apparent KD of MS2 coat protein,MS2 coat protein [3],21.6 nM
GAAAAACAUGAGGAUCACCCAUGUGAAAACUUGGGAGGAUAUACUAAGACGAAAGUCGAAGUAGAAGGCCUAAAAG [Same State 1.4j (Mat - Mod of Eli - )],apparent KD of MS2 coat protein,MS2 coat protein [2],89.1 nM
same,apparent KD of MS2 coat protein,MS2 coat protein [3],19 nM
GAAAAACAUGAGGAUCACCCAUGUGACAACAUGGGAGGAUAUACGUGGACGAUAGUCAAAGUAGAAGGCCUAAAAG [Garnet 64],apparent KD of MS2 coat protein,MS2 coat protein [2],18.4 nM
same,apparent KD of MS2 coat protein,MS2 coat protein [3],71.7 nM
GAACCACAUGAGGAUCACCCAUGUCUAAGAAAUUAAGGAUAUGCACAAAAGGAAAUAACUGCAGAAGGUAAACGAA [Redo],apparent KD of MS2 coat protein,MS2 coat protein [2],33.1 nM
same,apparent KD of MS2 coat protein,MS2 coat protein [3],25.1 nM
GAGGACAUAGUACAGGAUAUAUGAAUAGUUACAUGAGGAUCACCCAUGUGCAUUUAUAUGCGCACAUAGAAGGGUGGUAGUUAUC [SameState2 Malc#29],apparent KD of MS2 coat protein,MS2 coat protein [2],33.5 nM
same,apparent KD of MS2 coat protein,MS2 coat protein [3],38.8 nM
"GAUAAACAUGAGGAUCACCCAUGUAGAAAUAUGGGAGGAUAUACAAAGACGAAAGUCAAAGUAGAAGGCCUAAAAG [77%, Mat - Mod of Eli - With 1 more U's]",apparent KD of MS2 coat protein,MS2 coat protein [2],55.5 nM
same,apparent KD of MS2 coat protein,MS2 coat protein [3],24.4 nM
GCACCACAUGAGGAUCACCCAUGUAAAACGUAGCAAGGAUAUGGGCACGGAUAAUUCCGAUCAGAAGGUGUAACGC [Gemaditera],apparent KD of MS2 coat protein,MS2 coat protein [2],35.2 nM
same,apparent KD of MS2 coat protein,MS2 coat protein [3],105 nM
GGAAAUAACAGAGAGGAUAUCCAAAGGAAAACAUGAGGAUCACCCAUGUAAAAGGAAGGAAAUUGGGAGAAGGCUCAAAAUAGAA [salish99-ss2-019],apparent KD of MS2 coat protein,MS2 coat protein [2],26.7 nM
same,apparent KD of MS2 coat protein,MS2 coat protein [3],15.1 nM
GGAGCUCCAGCGCAGGAUAUCGACCCAGGGACAUGAGGAUCACCCAUGUUCCAAAAAAAAUGGGUCGAGAAGGGCGUUGGAGAGCC [SAmeState2-III],apparent KD of MS2 coat protein,MS2 coat protein [2],12.2 nM
same,apparent KD of MS2 coat protein,MS2 coat protein [3],11 nM
GGGAAGAACAGAGAGGAUAUCCAAAGGAAAACAUGAGGAUCACCCAUGUAAAAGGAAGGAAAUUGGGAGAAGGCUCAAAAGAGAA [salish99-ss2-023],apparent KD of MS2 coat protein,MS2 coat protein [2],36.4 nM
same,apparent KD of MS2 coat protein,MS2 coat protein [3],32.5 nM
GGGAGACAUGAGGAUCACCCAUGUGAAAACGUGUCAGGAUAUGUAUGGAAACCAUACUGUACAGAAGGGACUUGUC [Quintus Rammius Martialis],apparent KD of MS2 coat protein,MS2 coat protein [2],89.2 nM
same,apparent KD of MS2 coat protein,MS2 coat protein [3],54.8 nM
GGGAGACAUGAGGAUCACCCAUGUGAGAAGAGGCGAGGAUAUCGAAAAAAAAAAAAAAAACGAGAAGGCGCGAGAA [salish99-SS1-003],apparent KD of MS2 coat protein,MS2 coat protein [2],38 nM
same,apparent KD of MS2 coat protein,MS2 coat protein [3],23.3 nM
GGGAGACAUGAGGAUCACCCAUGUGAGAAGAGGCGAGGAUAUCGAAAGAAAGAAGAGAAACGAGAAGGCGCGAGAC [salish99-SS1-061],apparent KD of MS2 coat protein,MS2 coat protein [2],45.1 nM
same,apparent KD of MS2 coat protein,MS2 coat protein [3],30.4 nM
GGGAGGAAGAGAGAGGAUAUCCAAAGGAAAACAUGAGGAUCACCCAUGUAAAAGGUAGGAAAUUGGGAGAAGGCUCAAAAGAGGC [salish99-ss2-042],apparent KD of MS2 coat protein,MS2 coat protein [2],46.6 nM
same,apparent KD of MS2 coat protein,MS2 coat protein [3],19.4 nM
GGGAGGAAGAGAGAGGAUAUCCAAAGGAAAACAUGAGGAUCACCCAUGUAAAAGGUAGGAAAUUGGGAGAAGGCUCAAGAGAAGG [salish99-ss2-050],apparent KD of MS2 coat protein,MS2 coat protein [2],26.6 nM
same,apparent KD of MS2 coat protein,MS2 coat protein [3],18.2 nM
GUGAGGAAGAGAGAGGAUAUCCAAAGGAAAACAUGAGGAUCACCCAUGUAAAAGGUAGGAAAUUGGGAGAAGGCUCAAGAGAGAG [salish99-ss2-067],apparent KD of MS2 coat protein,MS2 coat protein [2],34.7 nM
same,apparent KD of MS2 coat protein,MS2 coat protein [3],40.2 nM
UAAAAACAUGAGGAUCACCCAUGUAGAAACAUGGGAGGAUAUACAAAGACGAAAGUCAAAGUAGAAGGCCUAAAAU [Mat - Same State 1 - Mod - D169],apparent KD of MS2 coat protein,MS2 coat protein [2],43.4 nM
same,apparent KD of MS2 coat protein,MS2 coat protein [3],51.4 nM
UAACAACAUGAGGAUCACCCAUGUCAAAUAAAUCGAGGAUAUGGGACGCAAGACGUCUUACCAGAAGGCGAAACAA [Leoratin],apparent KD of MS2 coat protein,MS2 coat protein [2],70.9 nM
same,apparent KD of MS2 coat protein,MS2 coat protein [3],25.1 nM
UAACUACAUGAGGAUCACCCAUGUCAAAUAAAUCGAGGAUAUGGGACGCAAAACGUCUGACCAGAAGGCGAAACAA [Maquriceri],apparent KD of MS2 coat protein,MS2 coat protein [2],132 nM
same,apparent KD of MS2 coat protein,MS2 coat protein [3],27.3 nM
UAAUAAUAAACCAAGGAUAUGGAGUUUCCAACAUGAGGAUCACCCAUGUUUAGCAUGAAAUCGAUCCAGAAGGUGGAGCCAAAUA [JR_SS002_Sub1005],apparent KD of MS2 coat protein,MS2 coat protein [2],102 nM
same,apparent KD of MS2 coat protein,MS2 coat protein [3],54.1 nM
UACAGACAUGAGGAUCACCCAUGUAGAAUUAUGGGAGGAUAUACAAAGACGAGAGUCAGAGUAGAAGGCCUAGGAU [salish99-ss1-164],apparent KD of MS2 coat protein,MS2 coat protein [2],61.3 nM
same,apparent KD of MS2 coat protein,MS2 coat protein [3],23.5 nM
UAGAGGAAGAGAGAGGAUAUCCAAAGGAAAACAUGAGGAUCACCCAUGUAAAAGGUAGGAAAUUGGGAGAAGGCUCAAGAGAGAG [salish99-ss2-062],apparent KD of MS2 coat protein,MS2 coat protein [2],30.3 nM
same,apparent KD of MS2 coat protein,MS2 coat protein [3],30.9 nM
UAGGGAACAGGGUAGGAUAUGCAUGGUCGUACAUGAGGAUCACCCAUGUAGCCUAGAAAAUAAAUGCAGAAGGACCAAAAGAAAA [Ononmaesra],apparent KD of MS2 coat protein,MS2 coat protein [2],48.3 nM
same,apparent KD of MS2 coat protein,MS2 coat protein [3],16.5 nM
UGAAAGGAGAGAGAGGAUAUCCAAAGGAAAACAUGAGGAUCACCCAUGUAGAAGGUAGGAAAUUGGGAGAAGGCUCAAGAAAGAG [salish99-ss2-139],apparent KD of MS2 coat protein,MS2 coat protein [2],35.4 nM
same,apparent KD of MS2 coat protein,MS2 coat protein [3],50.7 nM
UGGAGACAUGAGGAUCACCCAUGUAGAAGGAUGGGAGGAUAUACAAAGACGAGAGUCAGAGUAGAAGGCCUAGGAG [salish99-ss1-188],apparent KD of MS2 coat protein,MS2 coat protein [2],42.8 nM
same,apparent KD of MS2 coat protein,MS2 coat protein [3],31.3 nM
